# Numbered stars: 1 amine (or outer) side, 2 acyl side, 3 side chain; on linkers, the order of the positions; unused ones are H or OH. Bridge positions count the residues as written; N and C are the ends. Square brackets hold non-standard residues; d marks the D form. Side chains are listed from the residue outwards. Ends that are not written are not given here. * marks the point of attachment. C18 diacid = O=C(O)CCCCCCCCCCCCCCCCC(=O)*; γGlu = O=C(O)[C@H](CCC(=O)[*:2])N[*:1]; Aib = CC(C)(N)C(=O)O
# T1: human calcitonin receptor (human, UniProt P30988 25-474)
# T1 sequence (looked up): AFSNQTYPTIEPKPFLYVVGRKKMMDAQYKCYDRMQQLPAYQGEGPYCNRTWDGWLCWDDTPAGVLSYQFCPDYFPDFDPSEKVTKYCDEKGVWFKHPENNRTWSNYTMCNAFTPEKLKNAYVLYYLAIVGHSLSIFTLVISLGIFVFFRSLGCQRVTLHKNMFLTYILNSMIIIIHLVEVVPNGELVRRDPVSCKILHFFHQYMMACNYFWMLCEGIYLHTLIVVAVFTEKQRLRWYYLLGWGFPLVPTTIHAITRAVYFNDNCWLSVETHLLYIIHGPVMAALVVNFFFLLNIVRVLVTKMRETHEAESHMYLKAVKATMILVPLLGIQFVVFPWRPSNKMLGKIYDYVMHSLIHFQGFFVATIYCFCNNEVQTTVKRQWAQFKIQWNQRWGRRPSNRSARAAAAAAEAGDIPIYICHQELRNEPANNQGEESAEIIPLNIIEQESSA
# T2: human amylin receptor (calcitonin receptor co-expressed with receptor activity modifying protein, RAMP3) (human, UniProt P30988 25-474; O60896 24-148)
# T2 sequence (looked up) 1: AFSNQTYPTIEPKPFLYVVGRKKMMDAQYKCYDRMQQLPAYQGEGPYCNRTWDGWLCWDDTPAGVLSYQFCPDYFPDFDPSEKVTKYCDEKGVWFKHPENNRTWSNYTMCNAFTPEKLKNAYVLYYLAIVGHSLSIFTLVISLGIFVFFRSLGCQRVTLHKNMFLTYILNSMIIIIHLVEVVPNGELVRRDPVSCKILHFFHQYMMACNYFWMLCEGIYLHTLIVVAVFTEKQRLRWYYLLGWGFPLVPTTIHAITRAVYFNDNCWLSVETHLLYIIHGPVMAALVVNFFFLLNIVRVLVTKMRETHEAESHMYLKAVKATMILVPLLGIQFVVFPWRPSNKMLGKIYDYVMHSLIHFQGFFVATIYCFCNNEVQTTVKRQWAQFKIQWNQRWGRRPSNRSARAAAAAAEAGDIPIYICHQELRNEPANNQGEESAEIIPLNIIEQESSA
# T2 sequence (looked up) 2: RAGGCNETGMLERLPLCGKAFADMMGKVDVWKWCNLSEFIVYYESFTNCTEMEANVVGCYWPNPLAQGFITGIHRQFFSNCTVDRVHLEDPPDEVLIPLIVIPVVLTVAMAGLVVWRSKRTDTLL
# What was measured:
# [1] = biological target: T1, human calcitonin receptor; experiment: cell-based or functional assay
# [2] = biological target: T2, human amylin receptor (calcitonin …); experiment: cell-based or functional assay
EC50 (cAMP production) [1] [nM],EC50 (cAMP production) [2] [nM],Ratio (EC50 hCTR / EC50 hAMYR3) [2],Binder
7.25,0.167,43,K([γGlu-C18 diacid])CNTATCATQRLANF[dL]VHSS[Aib]NFGPILPPTNVGSNTY-NH2 (disulfide 2-7; N-terminus assumed; SMILES CC[C@H](C)[C@H](NC(=O)[C@@H]1CCCN1C(=O)CNC(=O)[C@H](Cc1ccccc1)NC(=O)[C@H](CC(N)=O)NC(=O)C(C)(C)NC(=O)[C@H](CO)NC(=O)[C@H](CO)NC(=O)[C@H](Cc1c[nH]cn1)NC(=O)[C@@H](NC(=O)[C@@H](CC(C)C)NC(=O)[C@H](Cc1ccccc1)NC(=O)[C@H](CC(N)=O)NC(=O)[C@H](C)NC(=O)[C@H](CC(C)C)NC(=O)[C@H](CCCNC(=N)N)NC(=O)[C@H](CCC(N)=O)NC(=O)[C@@H](NC(=O)[C@H](C)NC(=O)[C@@H]1CSSC[C@H](NC(=O)[C@@H](N)CCCCNC(=O)CC[C@H](NC(=O)CCCCCCCCCCCCCCCCC(=O)O)C(=O)O)C(=O)N[C@@H](CC(N)=O)C(=O)N[C@@H]([C@@H](C)O)C(=O)N[C@@H](C)C(=O)N[C@@H]([C@@H](C)O)C(=O)N1)[C@@H](C)O)C(C)C)C(=O)N[C@@H](CC(C)C)C(=O)N1CCC[C@H]1C(=O)N1CCC[C@H]1C(=O)N[C@H](C(=O)N[C@@H](CC(N)=O)C(=O)N[C@H](C(=O)NCC(=O)N[C@@H](CO)C(=O)N[C@@H](CC(N)=O)C(=O)N[C@H](C(=O)N[C@@H](Cc1ccc(O)cc1)C(N)=O)[C@@H](C)O)C(C)C)[C@@H](C)O) [Peptide 62 (SEQ ID NO: 62)]
1.28,0.149,9,K([γGlu-C18 diacid])CNTATCATQRLANFLVHSS[Aib]NFGPILPPTNVGSRTY-NH2 (disulfide 2-7; N-terminus assumed; SMILES CC[C@H](C)[C@H](NC(=O)[C@@H]1CCCN1C(=O)CNC(=O)[C@H](Cc1ccccc1)NC(=O)[C@H](CC(N)=O)NC(=O)C(C)(C)NC(=O)[C@H](CO)NC(=O)[C@H](CO)NC(=O)[C@H](Cc1c[nH]cn1)NC(=O)[C@@H](NC(=O)[C@H](CC(C)C)NC(=O)[C@H](Cc1ccccc1)NC(=O)[C@H](CC(N)=O)NC(=O)[C@H](C)NC(=O)[C@H](CC(C)C)NC(=O)[C@H](CCCNC(=N)N)NC(=O)[C@H](CCC(N)=O)NC(=O)[C@@H](NC(=O)[C@H](C)NC(=O)[C@@H]1CSSC[C@H](NC(=O)[C@@H](N)CCCCNC(=O)CC[C@H](NC(=O)CCCCCCCCCCCCCCCCC(=O)O)C(=O)O)C(=O)N[C@@H](CC(N)=O)C(=O)N[C@@H]([C@@H](C)O)C(=O)N[C@@H](C)C(=O)N[C@@H]([C@@H](C)O)C(=O)N1)[C@@H](C)O)C(C)C)C(=O)N[C@@H](CC(C)C)C(=O)N1CCC[C@H]1C(=O)N1CCC[C@H]1C(=O)N[C@H](C(=O)N[C@@H](CC(N)=O)C(=O)N[C@H](C(=O)NCC(=O)N[C@@H](CO)C(=O)N[C@@H](CCCNC(=N)N)C(=O)N[C@H](C(=O)N[C@@H](Cc1ccc(O)cc1)C(N)=O)[C@@H](C)O)C(C)C)[C@@H](C)O) [Peptide 64 (SEQ ID NO: 64)]
0.654,0.099,7,K([γGlu-C18 diacid])CNTATCATQRLANFLVHSS[Aib]NFGP[dI]LPPTNVGSNTY-NH2 (disulfide 2-7; N-terminus assumed; SMILES CC[C@@H](C)[C@@H](NC(=O)[C@@H]1CCCN1C(=O)CNC(=O)[C@H](Cc1ccccc1)NC(=O)[C@H](CC(N)=O)NC(=O)C(C)(C)NC(=O)[C@H](CO)NC(=O)[C@H](CO)NC(=O)[C@H](Cc1c[nH]cn1)NC(=O)[C@@H](NC(=O)[C@H](CC(C)C)NC(=O)[C@H](Cc1ccccc1)NC(=O)[C@H](CC(N)=O)NC(=O)[C@H](C)NC(=O)[C@H](CC(C)C)NC(=O)[C@H](CCCNC(=N)N)NC(=O)[C@H](CCC(N)=O)NC(=O)[C@@H](NC(=O)[C@H](C)NC(=O)[C@@H]1CSSC[C@H](NC(=O)[C@@H](N)CCCCNC(=O)CC[C@H](NC(=O)CCCCCCCCCCCCCCCCC(=O)O)C(=O)O)C(=O)N[C@@H](CC(N)=O)C(=O)N[C@@H]([C@@H](C)O)C(=O)N[C@@H](C)C(=O)N[C@@H]([C@@H](C)O)C(=O)N1)[C@@H](C)O)C(C)C)C(=O)N[C@@H](CC(C)C)C(=O)N1CCC[C@H]1C(=O)N1CCC[C@H]1C(=O)N[C@H](C(=O)N[C@@H](CC(N)=O)C(=O)N[C@H](C(=O)NCC(=O)N[C@@H](CO)C(=O)N[C@@H](CC(N)=O)C(=O)N[C@H](C(=O)N[C@@H](Cc1ccc(O)cc1)C(N)=O)[C@@H](C)O)C(C)C)[C@@H](C)O) [Peptide 61 (SEQ ID NO: 61)]
1.03,0.096,11,K([γGlu-C18 diacid])CNTATCATQRLANFLVHSS[Aib]NFGPIL[dP]PTNVGSNTY-NH2 (disulfide 2-7; N-terminus assumed; SMILES CC[C@H](C)[C@H](NC(=O)[C@@H]1CCCN1C(=O)CNC(=O)[C@H](Cc1ccccc1)NC(=O)[C@H](CC(N)=O)NC(=O)C(C)(C)NC(=O)[C@H](CO)NC(=O)[C@H](CO)NC(=O)[C@H](Cc1c[nH]cn1)NC(=O)[C@@H](NC(=O)[C@H](CC(C)C)NC(=O)[C@H](Cc1ccccc1)NC(=O)[C@H](CC(N)=O)NC(=O)[C@H](C)NC(=O)[C@H](CC(C)C)NC(=O)[C@H](CCCNC(=N)N)NC(=O)[C@H](CCC(N)=O)NC(=O)[C@@H](NC(=O)[C@H](C)NC(=O)[C@@H]1CSSC[C@H](NC(=O)[C@@H](N)CCCCNC(=O)CC[C@H](NC(=O)CCCCCCCCCCCCCCCCC(=O)O)C(=O)O)C(=O)N[C@@H](CC(N)=O)C(=O)N[C@@H]([C@@H](C)O)C(=O)N[C@@H](C)C(=O)N[C@@H]([C@@H](C)O)C(=O)N1)[C@@H](C)O)C(C)C)C(=O)N[C@@H](CC(C)C)C(=O)N1CCC[C@@H]1C(=O)N1CCC[C@H]1C(=O)N[C@H](C(=O)N[C@@H](CC(N)=O)C(=O)N[C@H](C(=O)NCC(=O)N[C@@H](CO)C(=O)N[C@@H](CC(N)=O)C(=O)N[C@H](C(=O)N[C@@H](Cc1ccc(O)cc1)C(N)=O)[C@@H](C)O)C(C)C)[C@@H](C)O) [Peptide 60 (SEQ ID NO: 60)]
0.375,0.076,5,K([γGlu-C18 diacid])CNTATCATQRLANFLVHSS[Aib]NFGPILPPTRVGSNTY-NH2 (disulfide 2-7; N-terminus assumed; SMILES CC[C@H](C)[C@H](NC(=O)[C@@H]1CCCN1C(=O)CNC(=O)[C@H](Cc1ccccc1)NC(=O)[C@H](CC(N)=O)NC(=O)C(C)(C)NC(=O)[C@H](CO)NC(=O)[C@H](CO)NC(=O)[C@H](Cc1c[nH]cn1)NC(=O)[C@@H](NC(=O)[C@H](CC(C)C)NC(=O)[C@H](Cc1ccccc1)NC(=O)[C@H](CC(N)=O)NC(=O)[C@H](C)NC(=O)[C@H](CC(C)C)NC(=O)[C@H](CCCNC(=N)N)NC(=O)[C@H](CCC(N)=O)NC(=O)[C@@H](NC(=O)[C@H](C)NC(=O)[C@@H]1CSSC[C@H](NC(=O)[C@@H](N)CCCCNC(=O)CC[C@H](NC(=O)CCCCCCCCCCCCCCCCC(=O)O)C(=O)O)C(=O)N[C@@H](CC(N)=O)C(=O)N[C@@H]([C@@H](C)O)C(=O)N[C@@H](C)C(=O)N[C@@H]([C@@H](C)O)C(=O)N1)[C@@H](C)O)C(C)C)C(=O)N[C@@H](CC(C)C)C(=O)N1CCC[C@H]1C(=O)N1CCC[C@H]1C(=O)N[C@H](C(=O)N[C@@H](CCCNC(=N)N)C(=O)N[C@H](C(=O)NCC(=O)N[C@@H](CO)C(=O)N[C@@H](CC(N)=O)C(=O)N[C@H](C(=O)N[C@@H](Cc1ccc(O)cc1)C(N)=O)[C@@H](C)O)C(C)C)[C@@H](C)O) [Peptide 63 (SEQ ID NO: 63)]
